Laboratory results published in PMC12102759.

B1: MXI1 peptide 6-21 (Max-interacting protein 1), 16-mer library wild type / SIN3A PAH2 (SIN3A PAH domain, residues 295-383) (parent)
chain 1: MINVQRLLEAAEFLER
chain 2: SLQNNQPVEFNHAINYVNKIKNRFQGQPDIYKAFLEILHTYQKEQRNAKEAGGNYTPALTEQEVYAQVARLFKNQEDLLSEFGQFLPDA
B2: PEX5 peptide 110-125 (Peroxisomal targeting signal 1 receptor), 16-mer library wild type / PEX14 Pex14 (PEX14 PEX14, residues 16-84) (parent)
chain 1: ADLALSENWAQEFLAA
chain 2: TPGSENVLPREPLIATAVKFLQNSRVRQSPLATRRAFLKKKGLTDEEIDMAFQQSGTAADEPSSLGPAT

Variants of: B1
Experiment: proteomic peptide phage display deep mutational scan (ProP-PD DMS): M13 P8 16-mer library selected against immobilised GST-tagged bait for four days (rounds), NGS of the eluted pools per day and pseudo-replica
Details: with SIN3A PAH2 (SIN3A PAH domain, residues 295-383); bait immobilised on MaxiSorp plates (10 µg), library pre-cleared on GST, 2 h binding at 4 °C, five washes; one round per day, days 1-4; value from days 2 and 3; keep out of graded; scale: average fractional NGS count over selection days 2 and 3

Row | Variant | screen value
1 | chain 1 MINVQRLLEAAEPLER [chain 1 F13P] | 4.79e-05
2 | chain 1 MINVDRLLEAAEFLER [chain 1 Q5D] | 0
3 | chain 1 MINVQRLLEAAEFTER [chain 1 L14T] | 5.17e-05
4 | chain 1 MINVPRLLEAAEFLER [chain 1 Q5P] | 3.48e-05
5 | chain 1 HINVQRLLEAAEFLER [chain 1 M1H] | 8.47e-05
6 | chain 1 MINVQRLLEAAEFAER [chain 1 L14A] | 0
7 | chain 1 MINVQRLLEAAEFFER [chain 1 L14F] | 3.78e-05
8 | chain 1 MINVQRLLEMAEFLER [chain 1 A10M] | 1.91e-05
9 | chain 1 MINVQRLWEAAEFLER [chain 1 L8W] | 6.64e-05
10 | chain 1 MINVQRVLEAAEFLER [chain 1 L7V] | 6.69e-05
11 | chain 1 MINVQRLLEATEFLER [chain 1 A11T] | 9.14e-05
12 | chain 1 MINVQTLLEAAEFLER [chain 1 R6T] | 0
13 | chain 1 MINVQRLNEAAEFLER [chain 1 L8N] | 7.15e-05
14 | chain 1 MINVQRRLEAAEFLER [chain 1 L7R] | 0

The remaining lines, values ahead:

Row | screen value | Variant
15 | 4.34e-05 | chain 1 MINVQRLREAAEFLER [chain 1 L8R]
16 | 0 | chain 1 MINEQRLLEAAEFLER [chain 1 V4E]
17 | 8.92e-05 | chain 1 MINVQRLLEASEFLER [chain 1 A11S]
18 | 0 | chain 1 MIAVQRLLEAAEFLER [chain 1 N3A]
19 | 6.22e-05 | chain 1 MGNVQRLLEAAEFLER [chain 1 I2G]
20 | 5.76e-05 | chain 1 MINVQDLLEAAEFLER [chain 1 R6D]
21 | 2.84e-05 | chain 1 MINVQRLLEAVEFLER [chain 1 A11V]
22 | 0 | chain 1 MKNVQRLLEAAEFLER [chain 1 I2K]
23 | 4.73e-05 | chain 1 MINVQRLLEIAEFLER [chain 1 A10I]
24 | 0.000105 | chain 1 MINVQRLLEADEFLER [chain 1 A11D]
25 | 6.78e-05 | chain 1 MINVWRLLEAAEFLER [chain 1 Q5W]
26 | 2.36e-05 | chain 1 MINVQRLLEHAEFLER [chain 1 A10H]
27 | 5.31e-05 | chain 1 MIQVQRLLEAAEFLER [chain 1 N3Q]
28 | 7.31e-05 | chain 1 MINVQRLLEAAEFQER [chain 1 L14Q]
29 | 6.6e-05 | chain 1 MINVQMLLEAAEFLER [chain 1 R6M]
30 | 0 | chain 1 TINVQRLLEAAEFLER [chain 1 M1T]
31 | 7.63e-05 | chain 1 MINVQRLFEAAEFLER [chain 1 L8F]
32 | 1.91e-05 | chain 1 MINPQRLLEAAEFLER [chain 1 V4P]
33 | 6.67e-05 | chain 1 AINVQRLLEAAEFLER [chain 1 M1A]
34 | 0 | chain 1 MINVQRLLEQAEFLER [chain 1 A10Q]
35 | 0 | chain 1 MINRQRLLEAAEFLER [chain 1 V4R]

Variants of: B2
Experiment: as above
Details: with PEX14 Pex14 (PEX14 PEX14, residues 16-84); bait immobilised on MaxiSorp plates (10 µg), library pre-cleared on GST, 2 h binding at 4 °C, five washes; one round per day, days 1-4; value from days 2 and 3; scale: average fractional NGS count over selection days 2 and 3

Row | Variant | screen value
36 | chain 1 HDLALSENWAQEFLAA [chain 1 A1H] | 0
37 | chain 1 KDLALSENWAQEFLAA [chain 1 A1K] | 0.00027
38 | chain 1 LDLALSENWAQEFLAA [chain 1 A1L] | 0.000249
39 | chain 1 VDLALSENWAQEFLAA [chain 1 A1V] | 0.000338
40 | chain 1 WDLALSENWAQEFLAA [chain 1 A1W] | 0
41 | chain 1 ADLDLSENWAQEFLAA [chain 1 A4D] | 0.000198
42 | chain 1 ADLALSENWMQEFLAA [chain 1 A10M] | 0
43 | chain 1 ADLALSENWQQEFLAA [chain 1 A10Q] | 0
44 | chain 1 ADLALSENWSQEFLAA [chain 1 A10S] | 0.000299
45 | chain 1 ADLALSENWAQEFLQA [chain 1 A15Q] | 0
46 | chain 1 ADLALSENWAQEFLSA [chain 1 A15S] | 0
47 | chain 1 ADLALSENWAQEFLTA [chain 1 A15T] | 0.000397
48 | chain 1 AGLALSENWAQEFLAA [chain 1 D2G] | 0.000331
49 | chain 1 ASLALSENWAQEFLAA [chain 1 D2S] | 0
50 | chain 1 ADLALSENWAQKFLAA [chain 1 E12K] | 0.000191
51 | chain 1 ADLALSENWAQRFLAA [chain 1 E12R] | 9.56e-05
52 | chain 1 ADLALSENWAQEKLAA [chain 1 F13K] | 0

Row | Variant | screen value
53 | chain 1 ADLALSENWAQELLAA [chain 1 F13L] | 0.000183
54 | chain 1 ADLALSENWAQEPLAA [chain 1 F13P] | 0
55 | chain 1 ADLALSENWAQETLAA [chain 1 F13T] | 0.0002
56 | chain 1 ADEALSENWAQEFLAA [chain 1 L3E] | 0.000345
57 | chain 1 ADRALSENWAQEFLAA [chain 1 L3R] | 0
58 | chain 1 ADSALSENWAQEFLAA [chain 1 L3S] | 0.000293
59 | chain 1 ADLADSENWAQEFLAA [chain 1 L5D] | 0
60 | chain 1 ADLANSENWAQEFLAA [chain 1 L5N] | 9.07e-05
61 | chain 1 ADLALSENWAQEFHAA [chain 1 L14H] | 0.000116
62 | chain 1 ADLALSERWAQEFLAA [chain 1 N8R] | 0
63 | chain 1 ADLALSETWAQEFLAA [chain 1 N8T] | 0.000134
64 | chain 1 ADLALSEYWAQEFLAA [chain 1 N8Y] | 0.000147
65 | chain 1 ADLALSENWAKEFLAA [chain 1 Q11K] | 0
66 | chain 1 ADLALSENWAPEFLAA [chain 1 Q11P] | 0
67 | chain 1 ADLALSENWATEFLAA [chain 1 Q11T] | 0.000165
68 | chain 1 ADLALMENWAQEFLAA [chain 1 S6M] | 0.000156
69 | chain 1 ADLALTENWAQEFLAA [chain 1 S6T] | 0

Further lines, results first:

Row | screen value | Variant
70 | 0.00015 | chain 1 RDLALSENWAQEFLAA [chain 1 A1R]
71 | 0.000166 | chain 1 ADLELSENWAQEFLAA [chain 1 A4E]
72 | 0 | chain 1 ADLGLSENWAQEFLAA [chain 1 A4G]
73 | 0.000358 | chain 1 ADLMLSENWAQEFLAA [chain 1 A4M]
74 | 9.07e-05 | chain 1 ADLSLSENWAQEFLAA [chain 1 A4S]
75 | 0.000159 | chain 1 ADLYLSENWAQEFLAA [chain 1 A4Y]
76 | 0 | chain 1 ADLALSENWDQEFLAA [chain 1 A10D]
77 | 0.000118 | chain 1 ADLALSENWNQEFLAA [chain 1 A10N]
78 | 0.000417 | chain 1 ADLALSENWPQEFLAA [chain 1 A10P]
79 | 0.000302 | chain 1 ADLALSENWAQEFLEA [chain 1 A15E]
80 | 9.87e-05 | chain 1 ADLALSENWAQEFLGA [chain 1 A15G]
81 | 0.000268 | chain 1 ADLALSENWAQEFLNA [chain 1 A15N]
82 | 9.07e-05 | chain 1 ADLALSENWAQEFLYA [chain 1 A15Y]
83 | 0 | chain 1 AFLALSENWAQEFLAA [chain 1 D2F]
84 | 0.000253 | chain 1 AILALSENWAQEFLAA [chain 1 D2I]
85 | 0.000156 | chain 1 AMLALSENWAQEFLAA [chain 1 D2M]
86 | 0.000407 | chain 1 AVLALSENWAQEFLAA [chain 1 D2V]
87 | 0.000175 | chain 1 ADLALSQNWAQEFLAA [chain 1 E7Q]
88 | 0.000448 | chain 1 ADLALSENWAQAFLAA [chain 1 E12A]

Row | screen value | Variant
89 | 0.000116 | chain 1 ADLALSENWAQDFLAA [chain 1 E12D]
90 | 0 | chain 1 ADLALSENWAQNFLAA [chain 1 E12N]
91 | 0.000147 | chain 1 ADLALSENWAQQFLAA [chain 1 E12Q]
92 | 0 | chain 1 ADLALSENWAQEGLAA [chain 1 F13G]
93 | 9.56e-05 | chain 1 ADLALSENWAQESLAA [chain 1 F13S]
94 | 0.000442 | chain 1 ADVALSENWAQEFLAA [chain 1 L3V]
95 | 0 | chain 1 ADLAESENWAQEFLAA [chain 1 L5E]
96 | 0.000301 | chain 1 ADLAFSENWAQEFLAA [chain 1 L5F]
97 | 9.07e-05 | chain 1 ADLAISENWAQEFLAA [chain 1 L5I]
98 | 0.000218 | chain 1 ADLARSENWAQEFLAA [chain 1 L5R]
99 | 0.000388 | chain 1 ADLALSENWAQEFAAA [chain 1 L14A]
100 | 0 | chain 1 ADLALSENWAQEFGAA [chain 1 L14G]
101 | 9.56e-05 | chain 1 ADLALSENWAQEFMAA [chain 1 L14M]
102 | 0.000163 | chain 1 ADLALSENWAQEFWAA [chain 1 L14W]
103 | 7.71e-05 | chain 1 ADLALSEKWAQEFLAA [chain 1 N8K]
104 | 0.000317 | chain 1 ADLALSENWAGEFLAA [chain 1 Q11G]
105 | 0.000186 | chain 1 ADLALSENWAIEFLAA [chain 1 Q11I]
106 | 0.000293 | chain 1 ADLALAENWAQEFLAA [chain 1 S6A]
107 | 0.000313 | chain 1 ADLALIENWAQEFLAA [chain 1 S6I]
